Laboratory results reported in article PMC5397143.

Target: RctB, wild-type full-length (residues 1–658) (Vibrio cholerae)
Assay: native MS

RctB, wild-type full-length (residues 1–658) (natural protein)
stoichiometry N: 2
